In article PMC3279538 (Diabetes, 2010) one finds Kd and koff data, which are given here for 1 molecule.

In this assay the target is endogenous B7-H1 wild type (NOD mouse, from wild-type spleen) (mouse (endogenous in NOD spleen), UniProt Q9EP73 19-290). In words: SPR. A general note: Surface plasmon resonance follows binding to a sensor surface in real time, without labels.
Chain of endogenous B7-H1 wild type (NOD mouse, from wild-type spleen) (Q9EP73 19-290): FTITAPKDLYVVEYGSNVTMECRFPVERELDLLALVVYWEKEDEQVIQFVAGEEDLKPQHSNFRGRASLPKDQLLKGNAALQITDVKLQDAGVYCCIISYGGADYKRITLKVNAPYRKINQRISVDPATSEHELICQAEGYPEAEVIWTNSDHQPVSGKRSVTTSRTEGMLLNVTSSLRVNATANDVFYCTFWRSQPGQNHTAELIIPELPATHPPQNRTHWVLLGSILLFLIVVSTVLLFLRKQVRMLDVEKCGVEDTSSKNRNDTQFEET

B1: PD-1 receptor (receptor, UniProt Q02242 25-169, looked up)
chain: LEVPNGPWRSLTFYPAWLTVSEGANATFTCSLSNWSEDLMLNWNRLSPSNQTEKQAAFCNGLSQPVQDARFQIIQLPNRHDFHMNILDTRRNDSGIYLCGAISLHPKAKIEESPGAELVVTERILETSTRYPSPSPKPEGRFQGM
With B1, binding was characterised by a dissociation constant (Kd) of 11 nM and the koff – broadly, a measure of how fast the partners let go of each other – was 0.0017 s⁻¹.
